Measurements from patent US6770740B1, “Crosslinked DNA condesate compositions and gene delivery methods” (The Regents of the University of Michigan, priority 1999, dated 2004).
Where no end group is shown, it is not given here. The star is where a group is joined. Carboxymethyl = O=C(O)C*

Tests used:
[1] = Shear stress stability of cross-linked DNA condensates (salt sonication), Example 5; assay type: physicochemical; details: 30 sec sonication; highest lane 2.5 M
Description: Peptide DNA condensates (200 μl of 50 μg/ml) were formed and incubated at RT for 30 min and then combined with 0 to 200 μl of 5 M sodium chloride and normalized to 400 μl with HBM to achieve a final sodium chloride concentration of 0, 0.2, 0.4, 0.8, 1.0, 1.5, 2.0, and 2.5 M. Each sample was sonicated for 30 sec with a 100 W Microson™ XL-2000 ultrasonic probe homogenizer (Kontes, Vineland N.J.) with a vibrational amplitude of 6 to fragment uncondensed DNA (Adami et al., 1998). DNA condensates were digested with 30 μg of trypsin for 12 h at 37° C. then electrophoresed on an agarose gel and visualized by ethidium bromide staining.

[2] = QELS particle size and zeta potential of peptide DNA condensates, Example 6; assay type: physicochemical; details: charge ratio 4:1, 50 μg/ml DNA in HBM; for Particle Size (nm): 90°, average and SD of three, No particles formed; for Zeta Potential (mV): average and SD of ten
Description: The particle size and zeta potential of peptide DNA condensates were determined by quasielastic light scattering (QELS) using a Brookhave ZetaPlus™. Particle size analysis was performed in triplicate at a DNA concentration of 50 μg/ml in HBM at a charge ratio of 4:1 and a scattering angle of 90°. Data analysis utilized a multimodal volume distribution option included with the instrument. Zeta potential was also determined using 50 μg/ml peptide DNA condensates prepared at a 4:1 charge ratio in HBM. The reported zeta potential was averaged from ten determinations.

HepG2 cells = experiment: Cell uptake of 125I-DNA condensates in HepG2 cells, Example 5; assay type: cell-based; details: HepG2, 5 h transfection
Description: Iodinated plasmid DNA (pCMVL) was prepared with specific activity of 300 nCi per μg of DNA as described previously (Terebesi et al., 1998). Prior to forming DNA condensates, the specific activity of the ^125I DNA was adjusted to 4.5 nCi μg of DNA by combining with unlabeled plasmid. DNA condensates were prepared using AlkCWK18 or peptide II as described above. Peptide ^125I-DNA condensates (10 μg) were used to transfect HepG2 and COS 7 cells for 5 h according to the procedure described above. The radioactive media was removed, cells were washed once with 2 ml of 1 M sodium chloride and three times with 2 ml of cold PBS and then harvested with 1 ml of lysis buffer. The cell-associated radioactivity from triplicate transfections was quantified by gamma counting.

[3] = system: HepG2, COS 7 and CHO cells; experiment: Luciferase gene expression, result stated for each of three cell lines, Example 6; assay type: cell-based
Description: HepG2 cells (1.5×10^5) were plated on 6×35 mm wells and grown to 50% confluencey in MEM supplemented with 10% FBS, penicillin and streptomycin (100 U/ml), sodium pyruvate (100 mM), and L-glutamine (2 mM). Transfections were performed in MEM (2 ml per 35 mm well) with 2% FBS with and without 80 μM chloroquine. Peptide DNA condensates (10 μg of DNA of 0.2 ml HBM) were added dropwise to triplicate wells. After a 5 h incubation at 37° C., the medium was replaced with MEM supplemented with 10% FBS. After 24 h, cells were washed with ice-cold phosphate buffered saline (calcium and magnesium free) and then treated with 0.5 ml of ice-cold lysis buffer (25 mM) Tris chloride pH 7.8, 1 mM EDTA, 8 mM magnesium chloride, 1% Triton X-100, 1 mM DTT) for 10 min. […]
Lysis buffer (300 μl), sodium-ATP (4 μl of a 180 mM solution, pH 7, 4° C.) and cell lysate (100 μl, 4° C.) were combined in a test tube, briefly mixed and immediately placed in the luminometer. Luciferase relative light units (RLU) were recorded on a Lumat™ LB 9501 (Berthoid Systems, Germany) with 10 sec integration after automatic injection of 100 μl of 0.5 mM D-luciferin (prepared fresh in lysis buffer without DTT). […] Protein concentrations were measured by Bradford assay using bovine serum albumin as a standard (Bradford, 1976). […]

[4] = Shear stress stability (salt sonication assay), Example 6; assay type: physicochemical; details: 30 sec sonication; highest tested 2.5 M
Description: The relative stability of peptide DNA condensates were examined using a salt sonication assay (Adami and Rice, 1999). Peptide DNA condensates (200 μl of 50 μg/ml) were formed as described above, incubated at RT for 30 min and then combined with 0-200 μl of 5 m […] and normalized to 400 μl with HBM to achieve a final sodium chloride concentration of 0, 0.2, 0.4, 0.8, 1.0, 1.5, 2.0 and 2.5 M. Each sample was sonicated for 30 sec with a 100 W Microson™ XL-2000 ultrasonic probe homogenizer (Kontes, Vineland N.J.) with a vibrational amplitude of 5 fragment uncondensed DNA. DNA condensates were digested with 30 μg to trypsin for 12 h at 37° C., electrophoresed on a 1% agarose gel electrophoresed in TEA buffer for 2 h, then visualized by ethidium bromide staining and destaining prior to photography on a transilluminator.

[5] = QELS particle size and zeta potential of cross-linking peptide DNA condensates, Example 5; assay type: physicochemical; details: for Particle Size Mean Diameter, Oxidized, 15° / Particle Size Mean Diameter, Oxidized, 90°: HBM after 2 h incubation, 50 μg/ml DNA, 0.4 nmol peptide per μg DNA; for Particle Size Mean Diameter, Oxidized, 15°: scattering angle 15°; for Particle Size Mean Diameter, Oxidized, 90°: scattering angle 90°; for Particle Size Mean Diameter, Saline: HBM with added saline (0.15 M) after 15 min; for Particle Size Mean Diameter, Reduced: following addition of TCEP (1 mM)
Procedure, shortened: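 Condensates at 50 μg/ml DNA in HBM, 0.4 nmol peptide per μg DNA (charge ratio ~2:1); size by QELS at 15° and 90°, mean diameter from diffusion coefficient by unimodal cumulant analysis. Peptide IV series: 7.5-37.5 nmol peptide with 75 μg DNA, charge ratio 0.5-2.5; zeta potential averaged over 10 determinations.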

Substance: Alk-S-Cys-Trp-Lys18 (C(Carboxymethyl)WKKKKKKKKKKKKKKKKKK) [AlkCWK18]
- sodium chloride concentration up to which DNA is protected from sonicative fragmentation [1]: 0.4 M
- Particle Size (nm) [2]: 64 ± 11 nm
- Zeta Potential (mV) [2]: 26 ± 1 mV
- 125I-DNA uptake, % of dose (HepG2 cells): 9.5 % of dose
- lower gene expression in the absence of chloroquine relative to presence of 80 μM chloroquine ([3]; in each cell line): 10-15 fold
- sodium chloride concentration up to which DNA condensates are stable [4]: 0.4 M
- Particle Size Mean Diameter, Oxidized, 15° [5]: 97 nm
- Particle Size Mean Diameter, Oxidized, 90° [5]: 95 nm
- Particle Size Mean Diameter, Saline [5]: 1215 nm
- Particle Size Mean Diameter, Reduced [5]: 74 nm

Substance: Cys-Trp-Lys17-Cys (CWKKKKKKKKKKKKKKKKKC) [Peptide II]
- sodium chloride concentration up to which DNA is protected from sonicative fragmentation [1]: 1.0 M
- Particle Size (nm) [2]: 53 ± 16 nm
- Zeta Potential (mV) [2]: 28 ± 9 mV
- 125I-DNA uptake, % of dose (HepG2 cells): 8.7 % of dose
- enhancement of gene expression over peptide 1 DNA condensates ([3]; in each cell line tested, charge ratio 4, 80 μM chloroquine): 10 to 40 fold
- sodium chloride concentration up to which DNA condensates are stable [4]: 1 M
- Particle Size Mean Diameter, Oxidized, 15° [5]: 31 nm
- Particle Size Mean Diameter, Oxidized, 90° [5]: 42 nm
- Particle Size Mean Diameter, Saline [5]: 257 nm
- Particle Size Mean Diameter, Reduced [5]: 121 nm
